In the supplement of paper PMC10126150:
± gives the standard deviation of the averaged measurements.

system: ATP; assay: switch fluorescence ratio, 500 uM ATP over buffer (Cy3 cluster intensity, sum of 5 cycles each) (fold (ratio)); higher = stronger signal-on switching upon ATP binding; sequences stand for … in TCGTCGGCAGCGTCAGATGTGTATAAGAGACAGTTTTTTTTTTTTTTTTTTTTTTTTT…TC; conditions: aptamer strand: ATP DNA aptamer (quencher-CACCTGGGGGAGTATTGCGGAGGAAGG + anchor), 100 nM annealed; ATP concentration: 500 uM
Method in brief: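 Switching-strand clusters labelled with Cy3 on a modified Illumina MiSeq flow-cell were annealed to 100 nM quencher-labelled ATP aptamer, imaged in selection buffer, and re-imaged after 15 min with 500 uM ATP at 22 °C. This was done over five cycles with NaOH stripping and re-annealing in between. The fluorescence ratio is summed target-cycle over summed buffer-cycle Cy3 intensity per cluster, averaged per switch-domain sequence, excluding clusters outside 100-1000 RFU.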
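Also: ATP exposure 15 min at 22 °C before imaging.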

Sequence | switch fluorescence ratio
CTATCTGCGG | 1.04 ± 0.046
CTATGAATGG | 0.975 ± 0.057
CTATGAATTA | 0.984 ± 0.024
CTATGCAGTG | 1.03 ± 0.024
CTATGCGGGA | 1.01 ± 0.04
CTATGGGGTT | 0.977 ± 0.011
CTATGGGTTT | 1.024 ± 0.0032
CTATGTCAAC | 1.06 ± 0.023
CTATTAAGTA | 0.9802 ± 0.0064
CTATTACGG | 1.04 ± 0.075
CTATTATCTG | 1.01 ± 0.024
CTATTCTAGG | 1.019 ± 0.0083
CTATTCTTGG | 0.9524 ± 0.006
CTATTTAGAT | 0.984 ± 0.011
CTATTTATCA | 1.02 ± 0.053
CTATTTGACT | 0.9576 ± 0.0028
CTATTTTACT | 0.9873 ± 0.0073
CTATTTTATT | 1.01 ± 0.068
CTATTTTGGG | 0.993 ± 0.026
CTCAACGTTC | 1.088 ± 0.006
CTCAATCTTG | 0.971 ± 0.043
CTCACGGGGC | 1.16 ± 0.16
CTCAGACGGA | 1 ± 0.043
CTCAGCCCGT | 1.03 ± 0.095
CTCAGGGGAG | 1.03 ± 0.047
CTCAGTATCT | 0.972 ± 0.041

Sequence | switch fluorescence ratio
CTCAGTTATG | 1.0176 ± 0.00079
CTCATAGACA | 1.03 ± 0.08
CTCATATTGT | 1.006 ± 0.0076
CTCATCGGTT | 1.007 ± 0.0011
CTCATTGGCC | 0.983 ± 0.0025
CTCCATATTA | 1.057 ± 0.0068
CTCCCACACG | 2.35 ± 0.36
CTCCCCGGGT | 3 ± 1.1
CTCCGATGTG | 1.57 ± 0.061
CTCCTCGTCA | 1.17 ± 0.036
CTCCTTTATT | 1.04 ± 0.037
CTCGCATGCA | 1.2 ± 0.035
CTCGCGACGA | 1.06 ± 0.019
CTCGCGGCGG | 1.03 ± 0.034
CTCGCTCGGT | 1.01 ± 0.019
CTCGCTCGTT | 1.03 ± 0.018
CTCGGAACCT | 1.84 ± 0.22
CTCGGAATGG | 1.08 ± 0.043
CTCGGAATTT | 1.04 ± 0.037
CTCGGATAGC | 1.02 ± 0.045
CTCGGCGCGC | 1.024 ± 0.0044
CTCGGCTTGT | 1.05 ± 0.044
CTCGGGGGCT | 0.98 ± 0.027
CTCGGGTGGG | 0.985 ± 0.037
CTCGTATTTA | 0.976 ± 0.021
CTCGTCAGGG | 0.995 ± 0.029

Sequence | switch fluorescence ratio
CTCGTCCGAC | 1.53 ± 0.11
CTCGTGGTTT | 0.981 ± 0.024
CTCGTTGAAA | 0.9779 ± 0.0065
CTCTAAAAAG | 1.06 ± 0.05
CTCTAATATC | 1.47 ± 0.091
CTCTAATTTT | 1.013 ± 0.0052
CTCTAGCCTC | 1.176 ± 0.0012
CTCTAGTGGC | 1.1 ± 0.074
CTCTCGACAC | 1.69 ± 0.078
CTCTGAAGCT | 1.06 ± 0.017
CTCTGGACAG | 0.9718 ± 0.0089
CTCTGGATTT | 0.97272 ± 0.00011
CTCTGGGAGG | 0.995 ± 0.021
CTCTGGGGCG | 1.01 ± 0.023
CTCTGGGGTA | 1.05 ± 0.031
CTCTGGGGTC | 1.05 ± 0.048
CTCTGGGTTG | 1.07 ± 0.13
CTCTTACTTT | 0.9862 ± 0.0084
CTCTTGTTTT | 0.988 ± 0.018
CTCTTTACGG | 1 ± 0.04
CTCTTTAGCG | 1.01 ± 0.025
CTCTTTCGAT | 1.03 ± 0.03
CTGAAAGGGC | 1.03 ± 0.066
CTGAAGGAGG | 0.971 ± 0.037
CTGAAGTTGT | 1.01 ± 0.032
CTGAATGGGG | 0.971 ± 0.01

Sequence | switch fluorescence ratio
CTGACGGCTT | 1.056 ± 0.0068
CTGAGAAGAG | 0.993 ± 0.041
CTGAGATCAG | 1.01 ± 0.026
CTGAGCCGGA | 1.08 ± 0.16
CTGAGGAGAC | 1.05 ± 0.042
CTGAGGCTGG | 0.9933 ± 0.0021
CTGAGGGGAT | 1.1 ± 0.047
CTGAGGGGCT | 0.982 ± 0.02
CTGAGTGTGG | 0.989 ± 0.028
CTGAGTTTGA | 1 ± 0.013
CTGAGTTTGG | 1.07 ± 0.061
CTGATAAAGT | 0.9922 ± 0.0082
CTGATCAATG | 1.1 ± 0.02
CTGATCAGCA | 1.03 ± 0.04
CTGATCAGTT | 1.02 ± 0.017
CTGATGCGCG | 1 ± 0.016
CTGATTATCT | 0.989 ± 0.02
CTGCATGTGC | 2.14 ± 0.11
CTGCGGATGG | 1.058 ± 0.0066
CTGCGTAGGG | 1.04 ± 0.029
CTGCGTCTAT | 1.08 ± 0.025
CTGCTAGATG | 0.983 ± 0.051
CTGCTAGCGG | 1.02 ± 0.065
CTGCTGAGGG | 0.99 ± 0.013
CTGCTTGTGA | 1.02 ± 0.026
CTGGAATTCA | 1.02 ± 0.049

Sequence | switch fluorescence ratio
CTGGAGGTTG | 0.998 ± 0.041
CTGGCAGTGG | 1.05 ± 0.054
CTGGCATGGG | 0.979 ± 0.014
CTGGCGTATG | 0.997 ± 0.036
CTGGCTGGCA | 0.995 ± 0.01
CTGGGAAGAG | 1.01 ± 0.028
CTGGGACTTG | 1 ± 0.013
CTGGGAGATT | 1.02 ± 0.039
CTGGGAGGGA | 0.991 ± 0.035
CTGGGAGGTT | 0.97 ± 0.05
CTGGGCACAT | 1.05 ± 0.015
CTGGGCGTGC | 0.997 ± 0.03
CTGGGGAGGT | 0.9946 ± 0.0044
CTGGGGATTT | 1.02 ± 0.013
CTGGGGGAAG | 0.985 ± 0.034
CTGGGGGGGG | 1 ± 0.038
CTGGGGGTCA | 1.04 ± 0.026
CTGGGGGTGC | 1.06 ± 0.017
CTGGGGGTTC | 1.01 ± 0.018
CTGGGGTAGG | 1.04 ± 0.018
CTGGGGTTTT | 0.991 ± 0.032
CTGGGTAGGG | 1.008 ± 0.01
CTGGGTCTGA | 1.02 ± 0.026
CTGGGTGCAT | 1.14 ± 0.032
CTGGGTGGCG | 1.01 ± 0.069
CTGGGTTAGG | 0.973 ± 0.032

Sequence | switch fluorescence ratio
CTGGGTTGCG | 0.958 ± 0.032
CTGGTAGAGG | 0.979 ± 0.048
CTGGTAGGGA | 1.06 ± 0.044
CTGGTATGGA | 0.971 ± 0.065
CTGGTATGGG | 1.01 ± 0.03
CTGGTCCAGG | 1.12 ± 0.034
CTGGTCTTGC | 1.04 ± 0.035
CTGGTGTGGC | 0.982 ± 0.028
CTGGTTCTTT | 0.9898 ± 0.0082
CTGTAAATTT | 0.991 ± 0.03
CTGTAACGTT | 1.015 ± 0.0015
CTGTAAGGCG | 1.05 ± 0.025
CTGTAATTGG | 1.006 ± 0.001
CTGTACGGAT | 1.95 ± 1.7
CTGTAGCTGG | 1.53 ± 0.05
CTGTAGGGTT | 1.01 ± 0.034
CTGTATTTCT | 1.03 ± 0.021
CTGTCTTGA | 1 ± 0.038
CTGTGAGGGC | 0.991 ± 0.037
CTGTGAGTTA | 0.97 ± 0.038
CTGTGCAGCG | 1.01 ± 0.019
CTGTGGAAAG | 0.991 ± 0.018
CTGTGGATGG | 1.01 ± 0.041
